Source: paper PMC6179904 (Developmental Cell, 2018)
Where no end group is shown, it is not given here. The star is where a group is joined. Fluorescin = fluorescein label at the C-terminus, before the amide; Myristoyl = CCCCCCCCCCCCCC(=O)*

These binders were tested against full-length UNC119A (UniProt Q13432 1-240) (assay: fluorescence polarisation).

Binder | Kd [nM]
Myristoyl-GSNKSKPKDASQ (also: fluorescein label, position not given here) [c-SRC (Myr-GSNKSKPKDASQ) fluorescein-labeled myristoylated peptide] | 125 ± 69
Myristoyl-GNLESAEGVPGE-{Fluorescin-NH2} [fluorescein-labeled myristoylated FMNL3 peptide (Myr-GNLESAEGVPGE-Fluorescin-amide)] | 856 ± 156
Myristoyl-GNAAGSAEQPAG-{Fluorescin-NH2} [fluorescein-labeled myristoylated FMNL1 peptide (Myr-GNAAGSAEQPAG-Fluorescin-amide)] | 10.1 ± 3.5
